Substitutions are numbered along the chain they refer to.
B1: TCR 21 (codon optimized, cysteine modified version) (TCR, V domains shown)
V domain 1: AQKITQTQPGMFVQEKEAVTLDCTYDTSDQSYGLFWYKQPSSGEMIFLIYQGSYDEQNATEGRYSLNFQKARKSANLVISASQLGDSAMYFCAMREGRVTGGGNKLTFGTGTQLKVEL
V domain 2: NAGVTQTPKFQVLKTGQSMTLQCAQDMNHNSMYWYRQDPGMGLRLIYYSASEGTTDKGEVPNGYNVSRLNKREFSLRLESAAPSQTSVYFCASRPWGNQNTEAFFGQGTRLTVVE
B2: TCR 18 (codon optimized, cysteine modified version) (TCR, V domains shown)
V domain 1: KQEVTQIPAALSVPEGENLVLNCSFTDSAIYNLQWFRQDPGKGLTSLLLIQSSQREQTSGRLNASLDKSSGRSTLYIAASQPGDSATYLCAEGNAGGTSYGKLTFGQGTILTVHP
V domain 2: DVKVTQSSRYLVKRTGEKVFLECVQDMDHENMFWYRQDPGLGLRLIYFSYDVKMKEKGDIPEGYSVSREKKERFSLILESASTNQTSMYLCASSFWGRSNSPLHFGNGTRLTVTE
B3: TCR 17 (codon optimized, cysteine modified version) (TCR, V domains shown)
V domain 1: AQKITQTQPGMFVQEKEAVTLDCTYDTSDPSYGLFWYKQPSSGEMIFLIYQGSYDQQNATEGRYSLNFQKARKSANLVISASQLGDSAMYFCAMREGRGDKIIFGKGTRLHILP
V domain 2: B2 V domain 2 with F95L, S101Q, L103Q, N107D, T112S, V113I, T114L
B4: TCR 23 (codon optimized, cysteine modified version) (TCR, V domains shown)
V domain 1: AQKITQTQPGMFVQEKEAVTLDCTYDTSDQSYGLFWYKQPSSGEMIFLIYQGSYDEQNATEGRYSLNFQKARKSANLVISASQLGDSAMYFCAMSPPGGSARQLTFGSGTQLTVLP
V domain 2: B2 V domain 2 with F95P, R98Q, S101Q, L103Q, N107D, T112S, V113I, T114L
B5: TCR 24 (codon optimized, cysteine modified version) (TCR, V domains shown)
V domain 1: AQKITQTQPGMFVQEKEAVTLDCTYDTSDQSYGLFWYKQPSSGEMIFLIYQGSYDEQNATEGRYSLNFQKARKSANLVISASQLGDSAMYFCAMREGRGDSWGKLQFGAGTQVVVTP
V domain 2: B2 V domain 2 with F95P, W96F, S99G, N100S, S101Y, P102E, L103Q, H104Y, N107P
B6: TCR 27 (codon optimized, cysteine modified version) (TCR, V domains shown)
V domain 1: DAKTTQPNSMESNEEEPVHLPCNHSTISGTDYIHWYRQLPSQGPEYVIHGLTSNVNNRMASLAIAEDRKSSTLILHRATLRDAAVYYCILRVPPQSGGYQKVTFGTGTKLQVIP
V domain 2: NAGVTQTPKFQVLKTGQSMTLQCAQDMNHNSMYWYRQDPGMGLRLIYYSASEGTTDKGEVPNGYNVSRLNKREFSLRLESAAPSQTSVYFCASSEFGSLNEKLFFGSGTQLSVLE
B7: modified version of TCR 14 (codon optimized, cysteine modified) (TCR)
TCR alpha: ILNVEQSPQSLHVQEGDSTNFTCSFPSSNFYALHWYRWETAKSPEALFVMTLNGDEKKKGRISATLNTKEGYSYLYIKGSQPEDSATYLCASQTGANNLFFGTGTRLTVIPYIQNPDPAVYQLRDSKSSDKSVCLFTDFDSQTNVSQSKDSDVYITDKCVLDMRSMDFKSNSAVAWSNKSDFACANAFNNSIIPEDTFFPSPESSCDVKLVEKSFETDTNLNFQNLSVIGFRILLLKVAGFNLLMTLRLWSS
TCR beta: DVKVTQSSRYLVKRTGEKVFLECVQDMDHENMFWYRQDPGLGLRLIYFSYDVKMKEKGDIPEGYSVSREKKERFSLILESASTNQTSMYLCASTFWGQRRTEAFFGQGTRLTVVEDLNKVFPPEVAVFEPSEAEISHTQKATLVCLATGFFPDHVELSWWVNGKEVHSGVCTDPQPLKEQPALNDSRYCLSSRLRVSATFWQNPRNHFRCQVQFYGLSENDEWTQDRAKPVTQIVSAEAWGRADCGFTSVSYQQGVLSATILYEILLGKATLYAVLVSALVLMAMVKRKDF
B8: TCR 22 (codon optimized, cysteine modified version) (TCR, V domains shown)
V domain 1: GQNIDQPTEMTATEGAIVQINCTYQTSGFNGLFWYQQHAGEAPTFLSYNVLDGLEEKGRFSSFLSRSKGYSYLLLKELQMKDSASYLCAVRARMDSNYQLIWGAGTKLIIKP
V domain 2: DAGVTQSPTHLIKTRGQHVTLRCSPISGHKSVSWYQQVLGQGPQFIFQYYEKEERGRGNFPDRFSARQFPNYSSELNVNALLLGDSALYLCASSRTENYGYTFGSGTRLTVVE
B9: modified version of TCR 4 (codon optimized, cysteine modified) (TCR)
TCR alpha: DAKTTQPNSMESNEEEPVHLPCNHSTISGTDYIHWYRQLPSQGPEYVIHGLTSNVNNRMASLAIAEDRKSSTLILHRATLRDAAVYYCILLVIRGTSYGKLTFGQGTILTVHPNIQNPDPAVYQLRDSKSSDKSVCLFTDFDSQTNVSQSKDSDVYITDKCVLDMRSMDFKSNSAVAWSNKSDFACANAFNNSIIPEDTFFPSPESSCDVKLVEKSFETDTNLNFQNLSVIGFRILLLKVAGFNLLMTLRLWSS
TCR beta: DTGVSQDPRHKITKRGQNVTFRCDPISEHNRLYWYRQTLGQGPEFLTYFQNEAQLEKSRLLSDRFSAERPKGSFSTLEIQRTEQGDSAMYLCASSPGGGNTEAFFGQGTRLTVVEDLNKVFPPEVAVFEPSEAEISHTQKATLVCLATGFFPDHVELSWWVNGKEVHSGVCTDPQPLKEQPALNDSRYCLSSRLRVSATFWQNPRNHFRCQVQFYGLSENDEWTQDRAKPVTQIVSAEAWGRADCGFTSVSYQQGVLSATILYEILLGKATLYAVLVSALVLMAMVKRKDF
B10: modified version of TCR 7 (codon optimized, cysteine modified) (TCR, V domains shown)
V domain 1: KNQVEQSPQSLIILEGKNCTLQCNYTVSPFSNLRWYKQDTGRGPVSLTIMTFSENTKSNGRYTATLDADTKQSSLHITASQLSDSASYICVVSRDNYGQNFVFGPGTRLSVLP
V domain 2: EPEVTQTPSHQVTQMGQEVILRCVPISNHLYFYWYRQILGQKVEFLVSFYNNEISEKSEIFDDQFSVERPDGSNFTLKIRSTKLEDSAMYFCAITDRTNYGYTFGSGTRLTVVE
B11: modified version of TCR 5 (codon optimized, cysteine modified) (TCR, V domains shown)
V domain 1: B5 V domain 1 with R98T, D100T, W102Y, Q106T, A109Q, Q112I, V113L, V114T, T116H
V domain 2: B2 V domain 2 with F95P, R98E, S99T, N100H, S101Q, L103Q, N107D, T112S, V113I, T114L

Target: T1, HLA-A2/E6 (29-38) tetramer (human; HPV 16)
T1 construct: also called E6(29-38) peptide-MHC tetramer; E6(29-38)-loaded tetramer
Assay: tetramer flow cytometry; transfected 1:1 CD4+ and CD4+/CD8+ Jurkat-derived cells;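 note: cell mixtures transiently transfected with TCR-encoding plasmids, analysed by flow cytometry 48 h later after HLA-A*02:01 E6 tetramer staining combined with anti-CD8 antibody co-staining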
Description: (§1) For transfection, the CD4+ and CD4+/CD8+ cell mixtures were transiently transfected with TCR-encoding plasmids and 48 hours after transfection, cells were assessed by flow cytometry for (1) binding of the target peptide in the context of an MHC molecule (HLA:A02:01) by staining with an E6(29-38) peptide- or an E7(11-19) peptide-MHC tetramer reagent, and/or (2) CD8+ independent binding of the target by co-staining the tetramer-labeled cells with an anti-CD8 antibody.

| Binder | % cells in E6 tet+/CD8+ quadrant | % cells in E6 tet+/CD8- quadrant | % cells in E6 tet-/CD8+ quadrant | % cells in E6 tet-/CD8- quadrant |
| --- | --- | --- | --- | --- |
| B1 | 28.8% | 32.7% | 7.16% | 31.3% |
| B2 | 23.3% | 3.61% | 12% | 61.1% |
| B3 | 36.2% | 21.3% | 7.72% | 34.8% |
| B4 | 52.5% | 22.5% | 5.19% | 19.7% |
| B5 | 55% | 23.5% | 5.56% | 16% |
| B6 | 15.8% | 3.5% | 20.1% | 60.6% |

Target: T1, HLA-A2/E6 (29-38) tetramer
Assay: tetramer flow cytometry; transfected Jurkat-derived cells, CD8+ population
Description: as §1

| Binder | % cells in E6 tet+/CD8+ quadrant | % cells in E6 tet+/CD8- quadrant | % cells in E6 tet-/CD8+ quadrant | % cells in E6 tet-/CD8- quadrant |
| --- | --- | --- | --- | --- |
| B1 | 51.6% | 0.22% | 46% | 2.18% |
| B2 | 50.4% | 0.045% | 47.7% | 1.86% |
| B3 | 34.7% | 0.17% | 63.6% | 1.53% |
| B4 | 43.6% | 0.18% | 54.1% | 2.14% |
| B5 | 29.1% | 0.13% | 66.2% | 4.51% |
| B7 | 38.4% | 0.04% | 59.7% | 1.8% |
| B6 | 24.5% | 0.02% | 73.5% | 1.96% |
| B8 | 51.2% | 0.14% | 47.3% | 1.38% |

Target: HPV 16 E6(29-38) peptide in the context of HLA-A02:01 on target cells (human; HPV 16)
Assay: cell-based or functional assay

| Binder | % CD8+/IC IFNγ+; transduced primary CD8+ T cells with T2 cells pulsed with 10 uM E6(29-38) peptide, E:T 10:1, 4 h |
| --- | --- |
| B9 | 94.2% |
| B10 | 70.5% |
| B11 | 43.7% |

Target: HPV 16 E7(11-19) peptide in the context of HLA-A02:01 on target cells (human; HPV 16)
Assay: cell-based or functional assay

| Binder | % CD8+/IC IFNγ+; transduced primary CD8+ T cells with T2 cells pulsed with 10 uM E7(11-19) peptide (control peptide), E:T 10:1, 4 h |
| --- | --- |
| B9 | 2.5% |
| B11 | 7.22% |
